B1: ICAM-2: biochemically purified soluble human ICAM-2 protein from retrovirally transduced NIH3T3 cells; ICAM-2-FC fusion also used (protein, UniProt P13598 25-223, looked up)
extracellular domain: KVFEVHVRPKKLAVEPKGSLEVNCSTTCNQPEVGGLETSLDKILLDEQAQWKHYLVSNISHDTVLQCHFTCSGKQESMNSNVSVYQPPRQVILTLQPTLVAVGKSFTIECRVPTVEPLDSLTLFLFRGNETLHYETFGKAAPAPQEATATFNSTADREDGHRNFSCLAVLDLMSRGGNIFHKHSAPKMLEIYEPVSDSQ
modifications: extracellular domain
notes: biochemically purified soluble human ICAM-2 protein from retrovirally transduced NIH3T3 cells; ICAM-2-FC fusion also used

How the values were obtained:
[1] = test system: NIH3T3; experiment: staurosporine induced apoptosis in ICAM-2 transduced NIH3T3 (annexin-V binding, BrdU TUNEL); format: cell-based, murine
How it was run: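 ICAM-2, ICAM2-ΔC or vector-transduced NIH3T3 cells treated with 1 μM staurosporine, with or without 10 μM LY294002, 24 h; DMSO vehicle control. Apoptosis by flow cytometry: annexin-V-FITC/PI at 12 h, BrdU TUNEL at 24 h; percent apoptotic cells, mean ± SD of triplicate cultures.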

[2] = test system: CD56 CD8 cytotoxic lymphocyte subsets; experiment: intracellular perforin and granzyme-A in CD56CD8 subsets of human PBMC by flow cytometry; format: cell-based
Experimental: IL-2, activated PBMC (shown in A-1 and A-3) were mock-treated (IgG) (A-2) , ICAM-1, (A2), ICAM-2, (A4), or ICAM-3, (A4) treated (10, μg/ml of FC fusion protein) for 12 hrs prior to incubation with target HL60, cells at a 50:1, E:T ratio for 4, hrs. Cells were then prepared for flow cytometry with CD8-CY5PE, CD56-PE surface stains, and perforin-CY5, and granzyme-A-FITC intracellular stains. Cells were gated for CD56^+CD8^low, CD56^+CD8^med, CD56^+, CD8^high, CD56^−, CD8^−, , CD56^−-CD8^high, populations as shown in A-1 and A-3 and population frequencies within appropriate gate. […] Results are representative of 3 independent experiments and were similar at 25:1 and 12.5:1 E:T ratios (data not shown). Manual calibration was performed. […] Perforin percentage was calculated from the following equation where MFI equals mean fluorescent intensity: 100×[(MFIexperimental−MFIisotype mAb)/(MFIcontrol−MFlisotype mAb)] Unstimulated cells were used as control.
Target cell lysis was measured by flow cytoemtric based detection of CFSE labeled HL60 cells. HL60 cells were labeled with 1 μg of CFSE (30 min, 37° C.). Targets were washed twice and mock treated, IL-2 activated (100 U/ml), CD3/CD28 activated (1 μg/ml), or treated with ICAM2 beads or soluble ICAM-1, -2, or 3 (10 μg/ml, 30 min, 37° C.) before plating at 10^4 target cells/well of a 96-well round bottom plate. CTLs were added at 50:1, 25:1, and 12.5:1 E:T ratio, and incubated at 37° C. for 4 hrs. Cells were then processed for multiparameter flow cytometry and intracellular perforin stain. Percent specific lysis was calculated by the following equation: % specific lysis=100-100×(experimental HL60 count/total control HL60 count). HL60 counts were detectable by the CFSE fluorescence. Percent perforin was calculated by the following equation: % perforin=100×[(experimental perforin MFI−isotype mAb MFI)/(total perforin MFI−isotype mAb MFI)]. MFI refers to mean fluorescent intensity of flow cytoemtric based intracellular detection. Cell conjugates were determined by flow cytometry as described (Morgan et al., 2001). Chemical inhibition was done at 10 μM of indicated compound (30 min, 37° C.) prior to stimulation as indicated. All experiments were performed in triplicate.

| Molecule | ICAM-2 induced survival signal ([1]; PKC isozyme inhibitors, system not specified) | effect on ICAM-2 anti-apoptotic effect, other kinase inhibitors ([1]; cell type not stated, data not shown) | granzyme-A negative population ([2]; CD56+CD8high population) | changes in intracellular perforin or granzyme-A ([2]; CD56+CD8low population) | frequency of the perforin negative population ([2]; CD56+CD8med population) |
| --- | --- | --- | --- | --- | --- |
| CN(C)CCCn1cc(C2=C(c3c[nH]c4ccccc34)C(=O)NC2=O)c2ccccc21 [bisindolymaleimide I] | did not abrogate | not abrogated |  |  |  |
| B1 |  |  | 58.3% | no significant changes | 21.5% |
